Measurements taken from patent US20240279288A1, “APPLICATION OF PLANT JAZ PROTEINS AND DERIVED POLYPEPTIDES IN PREVENTION AND TREATMENT OF HUMAN AND ANIMAL TUMORS” (ANYANG INSTITUTE OF SINO-COTTON INDUSTRY INNOVATION, priority 2021, published 2024).

Experiments:
Format in all cases: binding, cotton
[1] = test system: GhTPL; test: Yeast two hybrid with GhTPL
Procedure: (§1) The study on Arabidopsis had shown that the inhibition of JAZ protein on JA signaling was mainly achieved by inhibiting the transcription factor function of MYC, which had been experimentally verified by us in cotton. Based on the phylogenetic tree of Arabidopsis and cotton JAZs, we screened 6 cotton JAZs (GhJAZ1, GhJAZ7, GhJAZ9, GhJAZ10, GhJAZ11 and GhJAZ31), which were analyzed with GhMYC2, GhNINJA, GhTPL, GhHDA6, and GhCOI1 for yeast two hybrid. The amino acid sequence of GhJAZ1 was set forth in SEQ ID No. 4, and the corresponding encoding gene sequence was set forth in SEQ ID No. 39; the amino acid sequence of GhJAZ7 was set forth in SEQ ID No. 7, and the corresponding encoding gene sequence was set forth in SEQ ID No. 42; the amino acid sequence of GhJAZ9 was set forth in SEQ ID No. 2, and the corresponding encoding gene sequence was set forth in SEQ ID No. 37; the amino acid sequence of GhJAZ10 was set forth in SEQ ID No. 3, and the corresponding encoding gene sequence was set forth in SEQ ID No. 38; the amino acid sequence of GhJAZ11 was set forth in SEQ ID No. 5, and the corresponding encoding gene sequence was set forth in SEQ ID No. 40; and the amino acid sequence of GhJAZ31 was set forth in SEQ ID No. 9, and the corresponding encoding gene sequence was set forth in SEQ ID No. 44. The amino acid sequence of GhMYC2 was set forth in SEQ ID No. 71, and the corresponding encoding gene sequence was set forth in SEQ ID No. 72; the amino acid sequence of GhNINJA was set forth in SEQ ID No. 73, and the corresponding encoding gene sequence was set forth in SEQ ID No. 74; the amino acid sequence of GhTPL was set forth in SEQ ID No. 75, and the corresponding encoding gene sequence was set forth in SEQ ID No. 76; the amino acid sequence of GhHDA6 was set forth in SEQ ID No. 77, and the corresponding encoding gene sequence was set forth in SEQ ID No. 78; and the amino acid sequence of GhCOI1 was set forth in SEQ ID No. 79, and the corresponding encoding gene sequence was set forth in SEQ ID No. 80. […]

[2] = test system: GhCOI1; test: Yeast two hybrid with GhCOI1; conditions: in the presence of JA-Ile
GhCOI1, sequence (as listed by the source): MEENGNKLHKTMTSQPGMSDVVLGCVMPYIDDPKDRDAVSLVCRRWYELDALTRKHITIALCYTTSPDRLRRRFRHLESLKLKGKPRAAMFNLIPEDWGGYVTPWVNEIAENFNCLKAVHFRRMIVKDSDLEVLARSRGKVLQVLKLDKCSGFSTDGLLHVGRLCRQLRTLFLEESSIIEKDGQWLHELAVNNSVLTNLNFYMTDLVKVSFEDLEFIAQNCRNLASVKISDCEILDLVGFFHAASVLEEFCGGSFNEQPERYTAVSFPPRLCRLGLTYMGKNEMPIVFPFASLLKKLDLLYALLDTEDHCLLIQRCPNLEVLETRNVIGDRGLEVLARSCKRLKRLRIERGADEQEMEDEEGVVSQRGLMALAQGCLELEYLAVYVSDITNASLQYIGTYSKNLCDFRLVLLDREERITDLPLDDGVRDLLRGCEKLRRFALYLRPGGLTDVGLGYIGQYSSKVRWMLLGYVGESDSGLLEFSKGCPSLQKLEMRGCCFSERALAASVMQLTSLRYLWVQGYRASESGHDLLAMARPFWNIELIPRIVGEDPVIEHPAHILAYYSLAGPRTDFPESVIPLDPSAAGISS
Procedure: as §1

[3] = test system: GhNINJA; test: Yeast two hybrid with GhNINJA
GhNINJA, sequence (as listed by the source): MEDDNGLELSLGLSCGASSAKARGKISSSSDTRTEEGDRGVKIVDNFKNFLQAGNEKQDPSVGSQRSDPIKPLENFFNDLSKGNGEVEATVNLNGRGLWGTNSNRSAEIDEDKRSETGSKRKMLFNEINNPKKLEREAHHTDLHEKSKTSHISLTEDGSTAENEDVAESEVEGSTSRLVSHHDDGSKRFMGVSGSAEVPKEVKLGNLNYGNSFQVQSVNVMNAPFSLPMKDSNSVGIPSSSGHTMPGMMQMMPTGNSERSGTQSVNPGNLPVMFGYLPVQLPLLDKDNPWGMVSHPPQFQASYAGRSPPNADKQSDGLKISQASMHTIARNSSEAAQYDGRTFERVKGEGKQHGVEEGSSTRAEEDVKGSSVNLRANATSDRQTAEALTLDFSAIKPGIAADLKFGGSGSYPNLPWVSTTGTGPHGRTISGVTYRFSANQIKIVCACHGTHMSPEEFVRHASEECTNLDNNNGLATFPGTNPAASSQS
Procedure: as §1, with “44.” for “44. The amino acid sequence of GhMYC2 was set forth in SEQ ID No. 71, and the corresponding encoding gene sequence was set forth in SEQ ID No. 72; the amino acid sequence of GhNINJA was set forth in SEQ ID No. 73, and the corresponding encoding gene sequence was set forth in SEQ ID No. 74; the amino acid sequence of GhTPL was set forth in SEQ ID No. 75, and the corresponding encoding gene sequence was set forth in SEQ ID No. 76; the amino acid sequence of GhHDA6 was set forth in SEQ ID No. 77, and the corresponding encoding gene sequence was set forth in SEQ ID No. 78; and the amino acid sequence of GhCOI1 was set forth in SEQ ID No. 79, and the corresponding encoding gene sequence was set forth in SEQ ID No. 80.”

[4] = test system: GhMYC2; test: Yeast two hybrid with GhMYC2
GhMYC2, sequence (as listed by the source): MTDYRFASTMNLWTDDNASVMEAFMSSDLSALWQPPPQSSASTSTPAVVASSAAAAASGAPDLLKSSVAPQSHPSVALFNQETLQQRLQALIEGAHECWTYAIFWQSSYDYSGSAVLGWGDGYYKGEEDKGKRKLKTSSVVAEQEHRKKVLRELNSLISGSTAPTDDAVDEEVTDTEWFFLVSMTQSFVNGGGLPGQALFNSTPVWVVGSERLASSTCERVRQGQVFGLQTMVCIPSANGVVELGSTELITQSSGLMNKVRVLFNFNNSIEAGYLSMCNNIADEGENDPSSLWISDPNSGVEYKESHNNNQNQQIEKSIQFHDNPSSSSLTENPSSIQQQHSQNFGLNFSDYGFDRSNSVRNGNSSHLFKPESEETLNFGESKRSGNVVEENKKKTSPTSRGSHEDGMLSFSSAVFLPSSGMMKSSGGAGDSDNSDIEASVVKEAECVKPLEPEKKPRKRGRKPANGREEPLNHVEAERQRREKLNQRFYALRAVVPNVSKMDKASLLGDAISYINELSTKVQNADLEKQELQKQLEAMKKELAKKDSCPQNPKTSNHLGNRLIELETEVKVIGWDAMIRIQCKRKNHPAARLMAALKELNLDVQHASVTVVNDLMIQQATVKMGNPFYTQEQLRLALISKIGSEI
Procedure: as §1

[5] = test system: GhMYC2; test: Luciferase experiment in tobacco leaves with GhMYC2; conditions: no fluorescence on the control
Description: Method of the luciferase experiment: GhJAZ1 (corresponding encoding gene sequence set forth in SEQ ID No. 39) was subcloned into pCAMBIA-CLuc vector (Chen, H., et al. “Firefly Luciferase Complementation Imaging Assay for Protein-Protein Interactions in Plants.” Plant Physiology 146.2(2008):368-376.) between KpnI and SalI cleavage sites, and the transcription factors such as GhMYC2 (corresponding encoding gene sequence set forth in SEQ ID No. 72), GhNINJA (corresponding encoding gene sequence set forth in SEQ ID No. 74), and GhCOI1 (corresponding encoding gene sequence set forth in SEQ ID No. 80) were subcloned into pCAMBIA-NLuc (Chen, H., et al. “Firefly Luciferase Complementation Imaging Assay for Protein-Protein Interactions in Plants.” Plant Physiology 146.2(2008):368-376.) between KpnI and SalI cleavage sites, respectively. […] Luciferase substrates were applied at the infected leaves before taking images and placed in a dark room for at least 6 min to quench fluorescence, followed by observation on the Nightowl-II LB983 instrument, using IndigoBasic software under the luciferase-5 min setting conditions.

GhTPL, sequence (as listed by the source): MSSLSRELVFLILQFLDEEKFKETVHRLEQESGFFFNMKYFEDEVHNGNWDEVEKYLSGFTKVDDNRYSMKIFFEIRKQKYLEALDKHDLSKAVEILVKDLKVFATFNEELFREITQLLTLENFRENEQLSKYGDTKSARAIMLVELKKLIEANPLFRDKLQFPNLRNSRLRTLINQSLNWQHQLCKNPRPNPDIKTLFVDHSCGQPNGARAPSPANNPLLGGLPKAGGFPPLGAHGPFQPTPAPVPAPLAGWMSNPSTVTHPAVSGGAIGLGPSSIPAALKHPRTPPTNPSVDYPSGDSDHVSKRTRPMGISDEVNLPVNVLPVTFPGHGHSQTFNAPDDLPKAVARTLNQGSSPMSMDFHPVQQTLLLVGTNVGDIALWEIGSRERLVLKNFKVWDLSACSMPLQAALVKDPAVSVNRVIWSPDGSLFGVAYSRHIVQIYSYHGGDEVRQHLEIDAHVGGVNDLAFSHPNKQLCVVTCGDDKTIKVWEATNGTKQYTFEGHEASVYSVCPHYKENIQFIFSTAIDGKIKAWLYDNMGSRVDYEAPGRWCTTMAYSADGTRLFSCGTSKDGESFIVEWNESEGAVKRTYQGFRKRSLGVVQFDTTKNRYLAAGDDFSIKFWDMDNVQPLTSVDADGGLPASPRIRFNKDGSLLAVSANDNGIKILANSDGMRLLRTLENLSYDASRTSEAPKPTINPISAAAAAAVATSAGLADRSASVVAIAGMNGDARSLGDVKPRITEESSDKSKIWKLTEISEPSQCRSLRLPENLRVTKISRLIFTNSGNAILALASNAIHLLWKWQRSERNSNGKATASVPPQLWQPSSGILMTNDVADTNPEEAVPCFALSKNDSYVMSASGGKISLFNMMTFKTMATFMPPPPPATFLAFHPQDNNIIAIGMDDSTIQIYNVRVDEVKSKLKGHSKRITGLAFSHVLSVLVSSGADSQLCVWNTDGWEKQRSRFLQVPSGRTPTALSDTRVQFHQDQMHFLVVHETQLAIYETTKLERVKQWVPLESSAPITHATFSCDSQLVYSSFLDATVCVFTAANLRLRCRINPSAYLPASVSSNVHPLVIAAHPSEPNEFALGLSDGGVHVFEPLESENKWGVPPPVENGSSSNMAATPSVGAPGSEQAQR

| Molecule | interaction with GhTPL [1] | interaction with GhCOI1 [2] | interaction with GhNINJA [3] | interaction with GhMYC2 [4] | fluorescence with GhMYC2 after applying luciferase substrate [5] |
| --- | --- | --- | --- | --- | --- |
| GhJAZ1 after deletion of Jas domain: GhJAZ1 mutant with Jas domain deleted, protein sequence SEQ ID No. 87 (protein) MSSCSESTAMKPARSPEKPSFAQTCNLLSQYLKEKGSFGDLSLGMTCNVEANGTPVVPPPTMNLFPLNDKSDDVCGRNGGNPKNLTSMDLFPQQAGLASKDDSPNKLEPQTAPMTIFYGGQVIVFNDFPANKAKEIMLLASNSSSQSNNSFNPIPFTSSIARSPIESSIGVPPTSKPVHPAQRAVPGNNSAAAPSLSGDNKSWLGLAAQSP | significantly weakened | significantly weakened |  |  |  |
| GhJAZ1 after deletion of ZIM domain: GhJAZ1 mutant with ZIM domain deleted, protein sequence SEQ ID No. 85 (protein) MSSCSESTAMKPARSPEKPSFAQTCNLLSQYLKEKGSFGDLSLGMTCNVEANGTPVVPPPTMNLFPLNDKSDDVCGRNGGNPKNLTSMDLFPQQAGLASKDDSPNKLEPQTASSSQSNNSFNPIPFTSSIARSPIESSIGVPPTSKPVHPAQRAVPGDLPIARRASLHRFLEKRKDRITAKAPYQINNSAAAPSLSGDNKSWLGLAAQSP |  | significantly weakened | significantly weakened | significantly weakened |  |
| GhJAZ9: cotton JAZ9 protein, sequence SEQ ID No. 2, highest homology to AtJAZ9 (protein) MERDFLGLNSNEPLAVVKDDVNTDKYKQIGFTKSSGIQWPFSNKVFAVPQLMNFNFAQGDKTKKTGYDSKVSPLFMPISTMDASELQKSFNHNWNGGGHFSLTDSHVQHNTNMFPASNQTISVSGSNPFVKNHFTTTGQNFPANTIKPQFLGGVPVTTPHSVLPTLGTVGGSVEPCAQTSGSPAQLTIFYAGEVNVFDDITPEKAQAIMFLAGNGSSMASNSAYPKPPVQTPILKPVQVDSVPANQLINTQLSFGMPSPLPVSSHAGMQSWSGSTSTEEQIICKASVPPTPSTPISKLESPNLVNTMGSDAATGMMPSVPQARKASLARFLEKRKGRIMSTASPYNLISKKSLDYATTMESNA |  |  |  | weak | weaker fluorescence |
